In the test the target is recombinant caprine β-lactoglobulin (unlabelled) (caprine) (UniProt P02756). Briefly: AUC.

“recombinant caprine β-lactoglobulin (unlabelled) (from UniProt P02756 19-180) (natural protein)”: the stoichiometry N (as a rule, the number of molecules, sites or subunits per partner or assembly) was 2.

The values are drawn from publication doi:10.1101/675587.
